Experimental data: US20210205409A1, “METHOD FOR THE TREATMENT OF HYPOXIC-ISCHEMIC ENCEPHALOPATHY IN NEWBORNS” (UNIVERSITEIT MAASTRICHT, priority 2018, published 2021)

Test system: primary fetal endothelial cells (ECs) isolated from rat brains
Assay: Trans-endothelial electrical resistance (TEER) of endothelial cell monolayer after oxygen glucose deprivation (OGD)
Type: cell-based
Experimental: To assess whether the effects on the BBB integrity are mediated by Annexin A1, we used a recognized model for BBB integrity of primary fetal endothelial cells (ECs) isolated from rat brains at postnatal day 3.
A cellular monolayer of endothelial cells (ECs) was cultured on semipermeable filter inserts (Transwell, 3460 Corning). Trans-endothelial electrical resistance (TEER) was measured as an established quantitative readout for barrier integrity as described before (Srinivasan et al., J. Lab Autom. 2015 (2) 107-126) using an Epithelial Voltohmmeter (EVOM2) with two chopstick electrodes, each containing a silver-silver chloride pellet for measuring voltage and a silver pellet for passing current. Measurements of the resistance in ohm (Ω) across the cell layer were made on the semipermeable membrane by placing one electrode in the upper compartment and the other electrode in the lower compartment. Measurements were performed in duplicate per insert and consistently conducted for several days, 30 minutes after culture media was changed and temperature was kept at 37° C. before and between all measurements. […]
Subsequently TEER was measured in all groups at 1 hour, 3 hours, 6 hours, 12 hours and 24 after normoxia/OGD. […]
At 0 hour, baseline TEER measurements were taken before initiation of OGD. […] TEER in ohms was measured 3 h, 6 h, 12 h and 24 h after treatment. […]

B1: Annexin A1 (protein, UniProt P04083 2-346, looked up)
Annexin A1: AMVSEFLKQAWFIENEEQEYVQTVKSSKGGPGSAVSPYPTFNPSSDVAALHKAIMVKGVDEATIIDILTKRNNAQRQQIKAAYLQETGKPLDETLKKALTGHLEEVVLALLKTPAQFDADELRAAMKGLGTDEDTLIEILASRTNKEIRDINRVYREELKRDLAKDITSDTSGDFRNALLSLAKGDRSEDFGVNEDLADSDARALYEAGERRKGTDVNVFNTILTTRSYPQLRRVFQKYTKYSKHDMNKVLDLELKGDIEKCLTAIVKCATSKPAFFAEKLHQAMKGVGTRHKALIRIMVSRSEIDMNDIKAFYQKMYGISLCQAILDETKGDYEKILVALCGGN
notes: recombinant Annexin A1 protein, preferably of human origin, obtained commercially
- TEER plateau value (fetal rat brain ECs on Transwell, 4 h OGD then treatment with Annexin A1 3 μM, plateau from 12 h onwards, baseline approx. 150 ohms per insert): 130 ohms
- effect on endothelial resistance / barrier integrity following OGD (fetal rat brain ECs, 4 h OGD, Annexin A1 3 μM): restores the endothelial resistance and/or barrier integrity
